Drawing on the supplement of paper PMC10567573, this text covers protein stability index for 72 sequences.

± gives the standard deviation.

The data set is described as follows: protein stability index of a GFP-peptide fusion (GPS, HEK-293T) (PSI 1-6); higher = more stable.
The mark [1] stands for this setting: treatment: DMSO, c terminus: a fixed tail appended.
The mark [2] stands for this setting: treatment: MLN4924 1 uM, 8 h, c terminus: a fixed tail appended.
Where [3] appears, read: treatment: DMSO, c terminus: native.
[4] abbreviates: treatment: MLN4924 1 uM, 8 h, c terminus: native.
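Note: 24-mer peptide tiles fused after GFP, lentivirally expressed, FACS-sorted into six equal bins by GFP/DsRed ratio, decoded by Illumina sequencing, PSI is the read-weighted mean bin number.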

With SLVMGSQTESALSKKLRAILPKQS [LCOR], the protein stability index is, setting by setting: under setting [1], 2.71 ± 0.21; under setting [2], 2.95 ± 0.37.

For SLYILRGSARYDFSHEILRDEESF [ALKBH7], the protein stability index reads like this: under setting [1], 2.63 ± 0.21; under setting [2], 2.2 ± 0.6.

Consider SLYLLLVSCPKSEVRAKFKFSLLN [SPOPL], for which the protein stability index under setting [1] worked out at 2.56 ± 1.2 and the protein stability index under setting [2] came out at 2.49 ± 0.74.

For the sequence SMCEHHLVPFVGKVHIGYLPNKQV [GCH1], the protein stability index is 2.16 ± 0.38 under setting [1] and 2.29 ± 0.39 under setting [2].

Regarding SMLVAGNDRVQTIITQLEDSRRVT [TRIM63], the protein stability index stood at 3.81 ± 0.077 under setting [1] and 3.72 ± 0.12 under setting [2].

With SMTTPRCYVGATVLRGRLYAIAGY [KLHL12], the protein stability index is, setting by setting: under setting [1], 2.14 ± 0.36; under setting [2], 2.51 ± 0.58.

In turn, SNATATPSVRKKAGSFSRRLIKRF [C2CD2L] gave a protein stability index under setting [1] of 3.47 ± 0.18 and a protein stability index under setting [2] of 3.61 ± 0.18.

Consider SNLTSNLASLVSQGMIQLALSGAS [RETREG3], for which the protein stability index is, setting by setting: under setting [1], 3.05 ± 0.12; under setting [2], 3.15 ± 0.24.

For the sequence SNNNGRIKQLRSGGTPIRGALQIE [PTPRD], the protein stability index runs as follows: under setting [1], 3.76 ± 0.33; under setting [2], 3.85 ± 0.36.

In the case of SNRHGHTCLMISCYKGHKEIAQYL [FEM1C], the protein stability index was 2.68 ± 0.55 under setting [1] and 2.43 ± 0.39 under setting [2].

With SPAAPYFLGSSFSPVRCGGPGDAS [WEE1], the protein stability index worked out at 3.06 ± 0.3 under setting [1] and 3.17 ± 0.35 under setting [2].

As to SPHEMLQAVVLCSKKTFQITKQGD [USP39], the protein stability index came to 3.34 ± 0.39 under setting [1] and 3.4 ± 0.28 under setting [2].

Take SPISSISPGLHSFTDHQRLMKRRK [KCNK9]: the protein stability index stood at 4.7 ± 0.28 under setting [1] and 4.8 ± 0.16 under setting [2].

With SPREGEELKPEDKDPRDPEESKEP [GNAS], the protein stability index runs as follows: under setting [1], 5.78 ± 0.14; under setting [2], 5.71 ± 0.26.

Turning to SPSSDLDTDAEGDDFELLDQSELS [RETREG3], the protein stability index is 5.56 ± 0.13 under setting [1] and 5.38 ± 0.12 under setting [2].

Regarding SQAQETTIIASNAEEAEILHSACG [TOR1AIP2], the protein stability index reads like this: under setting [1], 5.26 ± 0.29; under setting [2], 5.21 ± 0.27.

Turning to SQNIAAETRAEDPPWFEGLESRFQ [DFFB], the protein stability index by setting is: under setting [1], 4.46 ± 0.13; under setting [2], 4.49 ± 0.079.

Take SRLLLLEQELKTVTYSLLKRLKER [SMAD6]: the protein stability index was determined as 2.77 ± 0.34 under setting [1] and 2.55 ± 0.49 under setting [2].

Take SRLRFLNLGRMIDWVPVESLLRPL [ZER1]: the protein stability index was determined as 2.16 ± 0.13 under setting [1] and 2.24 ± 0.25 under setting [2].

With SRLVAGEYLSFFDFSGLTLDGALR [PSD2], the protein stability index came to 1.93 ± 0.094 under setting [1] and 2.3 ± 0.29 under setting [2].

Turning to SRSAAQDLDRMGVMTLPSDLRKHR [PPFIA4], the protein stability index by setting is: under setting [1], 4.54 ± 0.48; under setting [2], 5.22 ± 0.1.

Regarding SRSTSFRGGMGSGGLATGIAGGLA [KRT18], the protein stability index is, setting by setting: under setting [1], 3.3 ± 0.066; under setting [2], 3.33 ± 0.37.

With SRTCIGSSHSRGPLSWAPCGPIAG, the protein stability index stood at 2.76 ± 0.18 under setting [1] and 2.84 ± 0.36 under setting [2].

As to SSASEGDEDLRRQMQDDEQKTRLL [PALM], the protein stability index runs as follows: under setting [1], 5.51 ± 0.15; under setting [2], 5.49 ± 0.19.

SSEKKRQSSADGSQPPKKKPKTTN [RBBP5]: the protein stability index reads like this: under setting [1], 5.24 ± 0.37; under setting [2], 5.28 ± 0.3.

Sequence SSKAHTSRFISANLPCNKFKNRLV [PTPRD] registered a protein stability index under setting [1] of 2.58 ± 0.35 and a protein stability index under setting [2] of 2.59 ± 0.26.

As to SSLDLSYYPTSSSTSFMSSSSSSS [EMD], the protein stability index reads like this: under setting [1], 3.99 ± 0.06; under setting [2], 3.84 ± 0.34.

SSLEEIVEKQGDTIEYLKRHNALL [TMEM192] returned a protein stability index under setting [1] of 3.82 ± 0.38 and a protein stability index under setting [2] of 3.92 ± 0.16.

Take SSLPGHAAKTLPGGAGKGRTPSAF [EHMT1]: the protein stability index is 3.98 ± 0.34 under setting [1] and 4.26 ± 0.32 under setting [2].

Turning to SSPMVQVDEKGEKVRPSHKRCIVI [LARP4], the protein stability index amounted to 2.69 ± 0.16 under setting [1] and 2.63 ± 0.12 under setting [2].

For the sequence SSRQTRPILKEQSSSSFSQGQSS [KRT16], the protein stability index runs as follows: under setting [3], 5.3 ± 0.29; under setting [4], 5.33 ± 0.25.

With SSSPPGTPSPADAKAPPTACYAGA [CEBPB], the protein stability index was determined as 5.14 ± 0.14 under setting [1] and 4.91 ± 0.29 under setting [2].

SSSTLMSSELETTSFFDSDEDDST [DVL3]: the protein stability index stood at 5.54 ± 0.38 under setting [1] and 5.61 ± 0.14 under setting [2].

For the sequence STPVCSQKVVVTTPLHRDKTPLHQ [MYBL2], the protein stability index is, setting by setting: under setting [1], 3.92 ± 0.22; under setting [2], 4.26 ± 0.24.

Consider STVQILTEGFPPGGGNARATGMFL [ZFYVE21], for which the protein stability index was determined as 2.16 ± 0.19 under setting [1] and 2.27 ± 0.35 under setting [2].

Turning to SVDLMLGLPAQQVGPWLGQLQELL [RSAD1], the protein stability index worked out at 2.38 ± 0.1 under setting [1] and 2.38 ± 0.45 under setting [2].

In the case of SVKIIFKLPNDSRVERRFHFSQSL [FAF2], the protein stability index under setting [1] turned out to be 2.72 ± 0.67 and the protein stability index under setting [2] amounted to 2.76 ± 0.55.

On to SVPLSLCVSSHLALPAQHHWESW [CLPTM1], for which the protein stability index stood at 2.22 ± 0.1 under setting [3] and 2.33 ± 0.25 under setting [4].

SVVSYTLKDIHDDQDYLHSLGKAR [FLOT1]: the protein stability index by setting is: under setting [1], 3.43 ± 0.3; under setting [2], 3.54 ± 0.28.

Sequence SWQDLKDHMREAGDVCYADVYRDG [SRSF1] displayed a protein stability index under setting [1] of 3.96 ± 0.68 and a protein stability index under setting [2] of 4.21 ± 0.12.

Regarding SYNITVTATDGGSPPLSTEAHFML [PCDHGA10], the protein stability index is 2.03 ± 0.36 under setting [1] and 2.09 ± 0.4 under setting [2].

Regarding TARRSKRERREEDRAPAEQVPRSP [PWWP2B], the protein stability index was found to be 5.38 ± 0.26 under setting [1] and 5.16 ± 0.45 under setting [2].

Take TCLTGVLGVGLGVEISRRLRHSNP [SPNS1]: the protein stability index runs as follows: under setting [1], 2.36 ± 0.22; under setting [2], 2.09 ± 0.36.

For TDRKLDDGDDKVFRRAPSWRKRFR [PPFIA4], the protein stability index stood at 4.38 ± 0.082 under setting [1] and 4.51 ± 0.47 under setting [2].

Regarding TFFLRTDAETPPRFTRTPVDQTGV [PTPRD], the protein stability index is, setting by setting: under setting [1], 3.42 ± 0.16; under setting [2], 3.28 ± 0.45.

On to TFHHPTYGSCYTVDGVWTAQRPGI [SCNN1D], for which the protein stability index by setting is: under setting [1], 2.61 ± 0.41; under setting [2], 2.61 ± 0.29.

For the sequence TGCVLGSSGKVLPKWGWEQLEVTC [POMT2], the protein stability index is, setting by setting: under setting [1], 2.07 ± 0.36; under setting [2], 2.25 ± 0.27.

As for TGERPYECNECGKAFSRSSGLFNH [ZSCAN9], the protein stability index is, setting by setting: under setting [1], 2.48 ± 0.4; under setting [2], 2.6 ± 0.37.

On to TGFRTISSLEEIVEKQGDTIEYLK [TMEM192], for which the protein stability index by setting is: under setting [1], 3.98 ± 0.41; under setting [2], 4 ± 0.2.

For TGSPARLSLRQTGSPGMIYSTRYG [KCNAB2], the protein stability index by setting is: under setting [1], 3.15 ± 0.45; under setting [2], 3.12 ± 0.45.

In the case of THSSVVLQGFDQLRLEGLLCDVTL [KLHL13], the protein stability index amounted to 2.43 ± 0.33 under setting [1] and 2.19 ± 0.19 under setting [2].

THTKEQILELVVLEQFVAILPKEL [ZNF24]: the protein stability index by setting is: under setting [1], 3.04 ± 0.72; under setting [2], 2.54 ± 0.66.

Take TIKRSSQTGEWQNIAIMTEEPELS [GFOD1]: the protein stability index runs as follows: under setting [1], 4.42 ± 0.33; under setting [2], 4.26 ± 0.43.

Consider TKETEQLRSQLQTLKQQHQQAVEQ [CCDC89], for which the protein stability index reads like this: under setting [1], 4.9 ± 0.19; under setting [2], 4.87 ± 0.21.

As to TKNKSKHALRKKQLKRQKRDYIHS [FAM9B], the protein stability index was 3.71 ± 0.1 under setting [1] and 3.76 ± 0.1 under setting [2].

Take TKPSKSAALHIDLCKATSPADALQ [INTS4]: the protein stability index by setting is: under setting [1], 3.91 ± 0.1; under setting [2], 3.84 ± 0.29.

In the case of TLITAVELERFVNLHSLALDFCDF [FBXO33], the protein stability index runs as follows: under setting [1], 2.47 ± 0.28; under setting [2], 2.95 ± 1.3.

Turning to TLKKFKGDLAYRRQEYQKALQEYS [C8orf76], the protein stability index by setting is: under setting [1], 2.82 ± 0.29; under setting [2], 2.79 ± 0.31.

Consider TLSKPSPMPVSQECFETLRGDERI [CHGA], for which the protein stability index was 4.81 ± 0.26 under setting [1] and 4.75 ± 0.17 under setting [2].

With TLYTAKKYAVPALEAHCVEFLTKH [BTBD1], the protein stability index runs as follows: under setting [1], 2.7 ± 0.28; under setting [2], 2.48 ± 0.12.

Turning to TNHIAPHARNGLSLKEEHRAYDLL [IKZF1], the protein stability index by setting is: under setting [1], 3.43 ± 0.28; under setting [2], 3.64 ± 0.11.

Consider TNSDVLAQQFALMAPLLFNGCRSG [DCAF4], for which the protein stability index reads like this: under setting [1], 2.23 ± 0.27; under setting [2], 2.14 ± 0.3.

In the case of TPDQKYSMDNTPHTPTPFKNALEK [MYBL2], the protein stability index was 5 ± 0.2 under setting [1] and 5.22 ± 0.2 under setting [2].

For TPGLGVVAVLLLFLVVREPPRGAV [SPNS1], the protein stability index amounted to 2.69 ± 0.44 under setting [1] and 3.28 ± 0.6 under setting [2].

Sequence TPHMLLDLSDLLQVDSLRPASFPT [BRF1] displayed a protein stability index under setting [1] of 2.28 ± 0.2 and a protein stability index under setting [2] of 2.43 ± 0.2.

As to TPPSSRRVWSPPRVHKVEMGFGGG [ZBTB22], the protein stability index was determined as 3.22 ± 0.4 under setting [1] and 3.33 ± 0.081 under setting [2].

With TPSEEHMKNKNNVTEFILLGLTQN [OR4A15], the protein stability index was 3.26 ± 0.33 under setting [1] and 3.21 ± 0.21 under setting [2].

For TQKLEEIKENAQDTMRQINKKGFW [TOR1AIP2], the protein stability index amounted to 3.61 ± 0.16 under setting [1] and 4.08 ± 0.36 under setting [2].

In the case of TQMIREGGARSLWRGNGINVLKIA [SLC25A25], the protein stability index is, setting by setting: under setting [1], 2.72 ± 0.25; under setting [2], 2.77 ± 0.21.

Regarding TSFQWVTKWVDYSNKYGFGYQLSD [PLK2], the protein stability index runs as follows: under setting [1], 2.06 ± 0.57; under setting [2], 2.08 ± 0.31.

For the sequence TSGVVFTGLMVSLLCLLHFSIVSV [RTN2], the protein stability index is 3 ± 0.53 under setting [1] and 3.07 ± 0.24 under setting [2].

For TSPVLPSLIQLLGRNFILFIIFGT [HACD3], the protein stability index runs as follows: under setting [1], 3.11 ± 0.48; under setting [2], 2.98 ± 0.4.
